Source: patent US20240026407A1, “MODIFICATION OF SAPONINS” (GLAXOSMITHKLINE BIOLOGICALS SA, priority 2020, published 2024)

Key:
Type in all cases: biochemical, Quillaja saponaria
[1] = Experiment 4-1: screening of glucosidases for deglycosylation with purified QS-18 (0.04 mg/ml) at pH 7.5 and room temperature; settings: pH 7.5, room temperature, 20 h, clarified E. coli lysate, QS-18 2150 to QS-21 1988 by LCMS/MS
In short: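 Deglycosylation measured by LC-MS/MS as % conversion after 20 h room-temperature incubation of QS-18 phenyl fraction (0.04 mg/ml final) with polymyxin B/lysozyme lysates, pH 7.5 phosphate, of E. coli BL21(DE3) expressing each enzyme; MeCN quench. Positives exceeded negative control by >3 S.D.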

[2] = Experiment 5-2: screening of additional glucosidases for deglycosylation with QS-18 in crude bark extract (80%) at pH 6 and 35 deg C; settings: CBE 80%, pH 6, 35 deg C, 18 hours; UV HPLC
In short: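 Deglycosylation of QS-18 was monitored by UV HPLC after MeCN/AcOH quench with hexanophenone. The reaction ran 18 hours at 35 deg C, shaking, combining clarified pH 6 lysate with crude bark extract neutralised to pH 6 by NaOH.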

[3] = Experiment 4-4: screening of glucosidases for deglycosylation of QS-18 in crude bark extract (1 in 20 dilution) to QS-21; settings: CBE 1 in 20 dilution, pH 6, 25 degC, 18 hours; % conversion of Middle Peak by UV HPLC
In short: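 Clarified glucosidase lysates were incubated with pH 6 crude bark extract (1 in 20) in potassium phosphate buffer pH 6 for 18 h at 25 °C with shaking, then quenched with MeCN. UV HPLC with MS/MS-supported peak identity; activity is % conversion of the extract's Middle Peak (QS-18 family) toward the QS-21 peak.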

[4] = Experiment 4-3: screening of glucosidases for deglycosylation with QS-18 in crude bark extract (1 in 2000 dilution) at pH 7 and 30 deg C; settings: CBE 1 in 2000 dilution, pH 7, 30 degC, 1 h; % conversion of QS-18 by LCMS/MS
[5] = Experiment 4-2: screening of glucosidases for deglycosylation with purified QS-18 (1 mg/ml) at pH 6 and 30 deg C; settings: pH 6, 30 degC, 18 hrs, clarified lysate, LCMS/MS
In short: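 Enzyme activity derived from LC-MS/MS analysis after MeCN quench. Substrate QS-18 (1 mg/ml final) was exposed overnight (18 h, 30 °C, pH 6 phosphate buffer) to clarified lysates containing candidate glucosidases.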

[6] = Experiment 5-1: screening of additional glucosidases for deglycosylation with purified QS-18 (0.04 mg/ml) at pH 7.5 and 30 deg C; settings: pH 7.5, 30 degrees C, 18 hours, LCMS/MS
Description: The 94 additional genes, together with positive control (DNA encoding SEQ ID No. 262) and negative control, were transformed, expressed, lysed and reacted in the same manner as described above for Experiment 4-1, except the reaction was incubated at 30 degrees C. for 18 hours.
Samples were analysed by LCMS/MS according to the procedure in Experiment 4-1.

[7] = Experiment 5-3: screening of additional glucosidases for deglycosylation with QS-18 in treated bark extract (80%) at pH 6 and 35 deg C; settings: TBE 80% (QS-21 approx. 4 g/L), pH 6, 35 deg C; UV HPLC
Description: Experiment 5-1 was repeated, replacing CBE with Treated Bark Extract (TBE) at pH 6. TBE was prepared from CBE by PVPP treatment and concentration, to provide TBE with a QS-21 concentration of approximately 4 g/L. TBE was adjusted to pH 6 by dropwise addition of 2M NaOH with stirring.

B1: 262 (protein, listed as Modestobacter marinus)
chain: MNPASSTRTDTMTDTTARTDSRLTDALAALSLEQKVQLLTGRDFWNTWPIEEIGLRRILVSDGPSGVRGEVWDERDPSLNLPSATALASAWDPDIARRYGAAAAVEARRKGVDVVLGPTINLHRSPLGGRHFEAFSEDPVLTAELAAAYVTGVQDNGVGATPKHYVANDFETDRFTVDVRADERTLRELYLLAFEKAVTEARAWLVMSAYNGINGATATENDLLETPLNSEWGFDGVVVSDWTAVRSLESARSSQDLVMPGPVGPWGDALVEAVRTGAIDESVVDRKVLRILTLAQRVGALEGSPAIDPVWVEDGVALAREAAVEGTVLLENRDELPWDATSLRKVAVIGNNAAAARTQGGGSATVLPEYTVSPLDGVRAALPDAEVSYSLGAVVQDGLVELPLAELTNPVTGGPGLRARFLTADGAELFGEDRRKSVLVYFGGDAPIAAAATYELTARWTPTESQTVRLGFALIGAAQLYVDGELLVESDLQPSGTDLGAAFMNPLTASAEVELVAGKPVDVRLVHDLSAKEGFAAHALFLQLGTEPAEVDEDALIAEAAEAAEAADVVLVVVGTNSIVESEGYDRESLSLPGRQDDLVRAVVAANPRTVVLVNAGAPVLLPWRDDVAALLLGWFGGQEFGNAVADVLLGVAEPGGRLPTTWPAAEADVPVLSCTPVDGVVEYTEGIHIGYRAWLRSGATPAYWFGSGQGYTCVELTGVEAPSRARPGEIVTVSVEVANRGERDGKQVVQVYAEKPDSTVDRPVRWLVGSAPVRVPAGQTAQVEVAVPTRYLAHWAGGWQYEPGVYRLRVGTTAVELPLETTLEVSA
For B1, the “Expt 4-1 % conv” value [1] was 99.5%, the “Experiment 5-2 % conv” value [2] was 5.5% and the “Expt 4-4 % conv” value [3] was 68.6%. For the same molecule, the “Expt 4-3 % conv” value [4] was 99.7%, the “Expt 4-2 % conv” value [5] was 97.9% and the “Experiment 5-1 % conv” value [6] was 98.7%. For the same molecule, the “Experiment 5-3 % conv” value [7] was 8.5%.
